{"source": "patent US10676765B2", "about": "“Methods for producing 3-hydroxy-3-methylbutyric acid” (Global Bioenergies, priority 2015, dated 2020)", "molecules": {"B1": {"name": "phosphate butyryltransferase from Enterococcus faecalis: phosphate butyryltransferase (EC 2.3.1.19) from Enterococcus faecalis MTUP9, Uniprot A0A038BNC2 (protein, listed as Enterococcus faecalis)", "chain": "MITVSIAGGSQPEILQLVKKALKEAEQPLQFIVFDTNENLDTENLWKYVHCSDEATVAQEAVSLVATGQAQILLKGIIQTHTLLKEMLKSEHQLKNKPILSHVAMVELPAGKTFLLTDCAMNIAPTQATLIEIVENAKEVAQKLGLHHPKIALLSAAENFNPKMPSSVLAKEVTAHFNGQQEATVFGPLSLDLATSEEAVAHKRYSGPIMGDADILVVPTIDVGNCLYKSLTLFGHAKVGGTIVGTKVPVVLTSRSDSTESKFHSLRFAMRQV", "modifications": "MTUP9", "notes": "phosphate butyryltransferase (EC 2.3.1.19) from Enterococcus faecalis MTUP9, Uniprot A0A038BNC2"}}, "key": {"[1]": {"experiment": "Conversion of 3-methylcrotonyl-CoA and ADP into 3-methylcrotonic acid and ATP, phosphate butyryltransferase from Enterococcus faecalis with butyrate kinases", "type": "biochemical", "conditions": "4 mM 3-methylcrotonyl-CoA, 4 mM ADP, 0.2 mg/ml each enzyme, 20 min, 30° C.", "experimental": "(§1) The enzymatic assays were conducted in a total reaction volume of 0.2 ml.\n(§2) The standard reaction mixture contained:\n(§3) 50 mM potassium phosphate buffer pH 7.5\n4 mM 3-methylcrotonyl-CoA\n(§4) 0.2 mg/ml of purified phosphate butyryltransferase from Enterococcus faecalis\n(§5) 0.2 mg/ml of purified butyrate kinase from Lactobacillus casei or Geobacillus sp.\nA series of controls was performed in parallel (Assays C-H Table 10).\nAssays were then incubated for 20 min with shaking at 30° C.\n(§6) After an incubation period, the reactions were stopped by heating the reaction medium 4 min at 90° C. The samples were centrifuged, filtered through a 0.22 μm filter and the clarified supernatants were transferred into a clean vial for further analysis. The consumption of ADP and 3-methylcrotonyl-CoA and the formation of ATP and 3-methylcrotonic acid and free coenzyme A (CoA-SH) were followed by HPLC analysis according to the methods described in Example 10 and Example 12."}, "[2]": {"experiment": "Conversion of 3-hydroxyisovaleryl-CoA and ADP into 3-hydroxyisovaleric acid and ATP, phosphate butyryltransferase from Enterococcus faecalis with butyrate kinases", "type": "biochemical", "conditions": "4 mM 3-hydroxyisovaleryl-CoA, 4 mM ADP, 0.2 mg/ml each enzyme, 20 min, 30° C.", "experimental": "as §1, §2, §3\n4 mM 3-hydroxyisovaleryl-CoA\nas §4, §5\nA series of controls were performed in parallel (Assays C-H Table 5).\nThe assays were then incubated for 20 min with shaking at 30° C.\nas §6, with “3-hydroxyisovaleryl-CoA,” for “3-methylcrotonyl-CoA”, “3-hydroxyisovaleric” for “3-methylcrotonic”, “10.” for “10 and Example 12.”"}}}
{"molecule": "B1", "values": [{"measurement": "production of 3-methylcrotonic acid and ATP", "setting": "[1]", "value": "significant production of 3-methylcrotonic acid without simultaneous generation of ATP"}, {"measurement": "production of 3-hydroxyisovaleric acid and ATP", "setting": "[2]", "value": "significant production of 3-hydroxyisovaleric acid, without simultaneous generation of ATP"}]}
